From US20100041074A1 (published 2010)
Several values for one entry are separate records, joined by “and”; a condition that tells them apart may be missing. Equal values may be shown once.

Molecular target: GST fused GRP78 protein (GST-GRP78) purified from E. coli (UniProt P11021 19-654)
Test: ELISA

B1: toxin-labeled GD17 single-chain antibody (GD17scFv-PE40) (scFv)
scFv: MDHHHHHHHHHHKLQVQLQQSGAELARPGASVKLSCKASGYTFTSYWMHWVKQRPGQGLEWIGAIYPGDGDTRYTQKFKGKATLTADKSSSTAYMQLSSLASEDSAVYYCASGITAVADYWGQGTTLTVSSGGGGSGGGGSGGGGSDVVMTQTPLSLPVSLGDQASISCRSSQSLVHSNGNTYLHWYLQKPGQSPKLLIYKVSNRFSGVPDRFSGSGSGTDFTLKISRVEAEDLGVYFCSQSTHVPLTFGAGTKLELKEFGGAPEFPKPSTPPGSSGLEGGSLAALTAHQACHLPLETFTRHRQPRGWEQLEQCGYPVQRLVALYLAARLSWNQVDQVIRNALASPGSGGDLGEAIREQPEQARLALTLAAAESERFVRQGTGNDEAGAANADVVSLTCPVAAGECAGPADSGDALLERNYPTGAEFLGDGGDVSFSTRGTQNWTVERLLQAHRQLEERGYVFVGYHGTFLEAAQSIVFGGVRARSQDLDAIWRGFYIAGDPALAYGYAQDQEPDARGRIRNGALLRVYVPRSSLPGFYRTSLTLAAPEAAGEVERLIGHPLPLRLDAITGPEEEGGRLETILGWPLAERTVVIPSAIPTDPRNVGGDLDPSSIPDKEQAISALPDYASQPGKPPDYKDDDDKKDEL
**Q.** How did the EC50 turn out when B1 was run?
**A.** 1.41 nM and 1.25 nM
